T1: human BCMA on BCMA expressing cell lines (human, UniProt Q02223 1-184)
T1 sequence: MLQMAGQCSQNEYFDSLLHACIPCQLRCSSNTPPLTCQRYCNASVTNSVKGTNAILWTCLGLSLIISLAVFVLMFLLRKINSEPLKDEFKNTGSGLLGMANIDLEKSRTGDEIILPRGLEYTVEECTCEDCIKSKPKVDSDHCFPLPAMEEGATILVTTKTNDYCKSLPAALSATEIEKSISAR

T2: human BCMA protein (human, UniProt Q02223 1-54, limits assumed)
T2 sequence: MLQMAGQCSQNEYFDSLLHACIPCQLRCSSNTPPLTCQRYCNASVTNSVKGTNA


Legend:
[1] = target: T1, human BCMA on BCMA expressing cell lines; test: cell-based or functional assay
human BCMA protein = target: T2, human BCMA protein; test: affinity to human BCMA protein, method not stated

| Binder | TDCC EC50 (EJM cells) [1] | Kd (human BCMA protein) |
| --- | --- | --- |
| BCMA targeting trispecific protein 01G06 (other, not shown: large carriers; small tags and cut ends, trispecific) VHH: EVQLVESGGGLVQPGRSLTLSCAASTNIFSRSPMGWYRQAPGKQRELVAAIHGFETLYADSVKGRFTISRDNAKNSIYLQMNSLRPEDTALYYCNKVPWGDYHPRNVLWGQGTQVTVSS | 19.2 pM | 17 nM |
| BCMA targeting trispecific protein 01E04 (other, not shown: large carriers; small tags and cut ends, trispecific) VHH: EVQLVESGGGLVQPGRSLTLSCAASTNIASISPMGWYRQAPGKQRELVAAIHGTSTLYADSVKGRFTISRDNAKNSIYLQMNSLRPEDTALYYCNKVPWGDYHPGNVYWGQGTQVTVSS | 2.67 pM | 7.29 nM |
| BCMA targeting trispecific protein 01F10 (other, trispecific; not shown: the C-terminal 6xHis tag follows those missing domains and is left out) VHH: EVQLVESGGGLVQPGRSLTLSCAASSNIFSISPMGWYRQAPGKQRELVAAIHGESTLYADSVKGRFTISRDNAKNSIYLQMNSLRPEDTALYYCNKVPWGDYHPRNVTWGQGTQVTVSS | 7.44 pM | 14.4 nM |
| BCMA targeting trispecific protein 01E03 (other, not shown: large carriers; small tags and cut ends, trispecific) VHH: EVQLVESGGGLVQPGRSLTLSCAASTNITSISPMGWYRQAPGKQRELVAAIHGDSTLYADSVKGRFTISRDNAKNSIYLQMNSLRPEDTALYYCNKVPWGDYHPGNVYWGQGTQVTVSS | 2.98 pM | 6.36 nM |
| BCMA targeting trispecific protein 01E07 (other, trispecific; not shown: anti-albumin domain, anti-CD3 domain and the linkers of the trispecific (TriTAC) chain; the C-terminal 6xHis tag follows these missing domains and is left out) VHH: EVQLVESGGGLVQPGRSLTLSCAASTNIPSISPMGWYRQAPGKQRELVAAIHGQSTLYADSVKGRFTISRDNAKNSIYLQMNSLRPEDTALYYCNKVPWGDYHPRNVQWGQGTQVTVSS | 19.2 pM | 19.9 nM |
| BCMA targeting trispecific protein 01D05 (other, trispecific; not shown: anti-albumin domain, anti-CD3 domain and the linkers of the trispecific (TriTAC) chain; the C-terminal 6xHis tag follows these missing domains and is left out) VHH: EVQLVESGGGLVQPGRSLTLSCAASTNIFSDSPMGWYRQAPGKQRELVAAIHGTSTLYADSVKGRFTISRDNAKNSIYLQMNSLRPEDTALYYCNKVPWGDYHPRNVYWGQGTQVTVSS | 16.6 pM | 17.8 nM |
| BCMA targeting trispecific protein 01G11 (other, not shown: large carriers; small tags and cut ends, trispecific) VHH: EVQLVESGGGLVQPGRSLTLSCAASTNIPSISPMGWYRQAPGKQRELVAAIHGASTLYADSVKGRFTISRDNAKNSIYLQMNSLRPEDTALYYCNKVPWGDYHPRNVAWGQGTQVTVSS | 3.98 pM | 9.7 nM |
| BCMA targeting trispecific protein 01H01 (other, not shown: large carriers; small tags and cut ends, trispecific) VHH: EVQLVESGGGLVQPGRSLTLSCAASTNIGSISPMGWYRQAPGKQRELVAAIHGQSTLYADSVKGRFTISRDNAKNSIYLQMNSLRPEDTALYYCNKVPWGDYHPQNVYWGQGTQVTVSS | 118 pM | 35.9 nM |
| BCMA targeting trispecific protein 01D04 (other, trispecific; not shown: anti-albumin domain, anti-CD3 domain and the linkers of the trispecific (TriTAC) chain; the C-terminal 6xHis tag follows these missing domains and is left out) VHH: EVQLVESGGGLVQPGRSLTLSCAASTNITSISPMGWYRQAPGKQRELVAAIHGVSTLYADSVKGRFTISRDNAKNSIYLQMNSLRPEDTALYYCNKVPWGDYHPRNVQWGQGTQVTVSS | 16 pM | 18.9 nM |
| BCMA targeting trispecific protein 01G09 (other, trispecific; not shown: anti-albumin domain, anti-CD3 domain and the linkers of the trispecific; the C-terminal His6 that follows them is left out) VHH: EVQLVESGGGLVQPGRSLTLSCAASTNIFNISPMGWYRQAPGKQRELVAAIHGFSTYYADSVKGRFTISRDNAKNSIYLQMNSLRPEDTALYYCNKVPWGRYHPRNVYWGQGTQVTVSS | 441 pM | 87.8 nM |
| BCMA targeting trispecific protein 01D07 (other, not shown: large carriers; small tags and cut ends, trispecific) VHH: EVQLVESGGGLVQPGRSLTLSCAASTNIFSASPMGWYRQAPGKQRELVAAIHGSSTLYADSVKGRFTISRDNAKNSIYLQMNSLRPEDTALYYCNKVPWGDYHPRNVNWGQGTQVTVSS | 19.6 pM | 19.3 nM |
| BCMA targeting trispecific protein 01H05 (other, not shown: large carriers; small tags and cut ends, trispecific) VHH: EVQLVESGGGLVQPGRSLTLSCAASTNIFSITPMGWYRQAPGKQRELVAAIHGTSTLYADSVKGRFTISRDNAKNSIYLQMNSLRPEDTALYYCNKVPWGRYHPRNVYWGQGTQVTVSS | 45.4 pM | 27.4 nM |
| BCMA targeting trispecific protein 01E06 (other, not shown: large carriers; small tags and cut ends, trispecific) VHH: EVQLVESGGGLVQPGRSLTLSCAASTNIFSLSPMGWYRQAPGKQRELVAAIHGDSTLYADSVKGRFTISRDNAKNSIYLQMNSLRPEDTALYYCNKVPWGDYHPRNVYWGQGTQVTVSS | 3.77 pM | 8.91 nM |
| BCMA targeting trispecific protein 01E05 (other, trispecific; not shown: the C-terminal 6xHis tag follows those missing domains and is left out) VHH: EVQLVESGGGLVQPGRSLTLSCAASTNIFSRSPMGWYRQAPGKQRELVAAIHGTSTLYADSVKGRFTISRDNAKNSIYLQMNSLRPEDTALYYCNKVPWGKYHPRNVYWGQGTQVTVSS | 10.8 pM | 11.7 nM |
| BCMA targeting trispecific protein 01G10 (other, not shown: large carriers; small tags and cut ends, trispecific) VHH: EVQLVESGGGLVQPGRSLTLSCAASTNEFSISPMGWYRQAPGKQRELVAAIHGLSTLYADSVKGRFTISRDNAKNSIYLQMNSLRPEDTALYYCNKVPWGAYHPRNVYWGQGTQVTVSS | 143 pM | 41.9 nM |
